Reference: the supplement of paper PMC10724198
± gives the standard deviation of the averaged measurements.

Test system: Saccharomyces cerevisiae
Experiment: protein stability index of tFT-peptide fusion (C-terminal peptide) (PSI (0-1 scale)); higher = more stable (slower turnover)
Details: genetic background: wild type; temperature: 30 C
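Further: PSI is a weighted mean of sequencing reads over stability bins, variants kept only with over 10 reads, mCherry proximal and sfGFP distal, peptide attached via GGGS linker.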

Sequence	protein stability index
SAQPELPNIAPA	0.636 ± 0.049
SARQCWFSLSDD	0.639 ± 0.043
SATPFSTEVCPL	0.631 ± 0.028
SATSFLAAGPPT	0.6957 ± 0.0063
SAVPFLRASRNA	0.693 ± 0.034
SAWTPPLCLLPP	0.711 ± 0.043
SCCPPSRTFFPS	0.734 ± 0.0078
SCHPDPTRKSPN	0.7159 ± 0.0035
SCIFRGNPFLLL	0.711 ± 0.018
SCIIWPAKGCPF	0.687 ± 0.054
SCLATDSWLAFV	0.665 ± 0.058
SCNILPRFSPLL	0.723 ± 0.033
SCSICLWVGHGC	0.656 ± 0.028
SCTDIGWIMRDI	0.673 ± 0.061
SCYRSCGALLSA	0.694 ± 0.011
SDFAPTRPPPAP	0.634 ± 0.051
SDGEHIYPESYR	0.695 ± 0.023
SDGVSLRSFCWL	0.697 ± 0.035
SDKRMGSLQMSS	0.712 ± 0.033
SDKVKRYISTTL	0.637 ± 0.023
SDLPPCPSRPSP	0.661 ± 0.11
SDQEIKKSQCGG	0.659 ± 0.047
SDQPTWTAQTSN	0.783 ± 0.025
SDRSLPGVPVRF	0.7234 ± 0.0048
SDVRANAYRPEH	0.688 ± 0.042
SEAHMGWRGGEK	0.643 ± 0.1

Sequence	protein stability index
SEDGPTPAPSTD	0.71 ± 0.059
SEDLSNNMKQDI	0.688 ± 0.026
SEEAQRKRNTLK	0.6715 ± 0.0051
SEGLFSVLYIWM	0.687 ± 0.16
SEGSRGYLLEIQ	0.69 ± 0.029
SENEGEGIYVRM	0.672 ± 0.065
SENKRKEHRMSF	0.712 ± 0.05
SESLLSQPIVLV	0.647 ± 0.017
SEVRGRERLAKC	0.662 ± 0.041
SFATSELRAGNN	0.701 ± 0.17
SFCGVLCIRACF	0.623 ± 0.026
SFCSSVFWFFWL	0.584 ± 0.037
SFCYFSCPSLIM	0.718 ± 0.11
SFFFRSYCFPAP	0.7169 ± 0.0037
SFFGPLADEIID	0.73 ± 0.014
SFFGRVDSRSLP	0.7184 ± 0.0025
SFGACSTSERIN	0.666 ± 0.07
SFLPDCLSLFLF	0.612 ± 0.058
SFLTPFLLSYAT	0.636 ± 0.0038
SFLWRRSYFVFR	0.616 ± 0.017
SFPASSLPHSLL	0.716 ± 0.043
SFPLPSPSPLLP	0.712 ± 0.05
SFPPTSPTHFPL	0.703 ± 0.031
SFPRSHPPPFPP	0.674 ± 0.012
SFRDSFVNFGVF	0.695 ± 0.045
SFSPEQITCNPY	0.598 ± 0.037

Sequence	protein stability index
SFTGSASYPKGR	0.667 ± 0.0098
SFVLKAFLTRAV	0.765 ± 0.23
SGAGRRRGGARE	0.651 ± 0.031
SGCVARTRGLSG	0.62 ± 0.018
SGDCRLPLPRSP	0.711 ± 0.022
SGEEVRSVARFF	0.629 ± 0.035
SGEVIRVTDWLV	0.719 ± 0.038
SGGGGGKEAVVR	0.646 ± 0.019
SGHGGAARRPAP	0.733 ± 0.08
SGHSRCSPALPV	0.7123 ± 0.002
SGKKERQKTEEE	0.645 ± 0.1
SGKSSFLGAVWV	0.711 ± 0.0061
SGLLGVSIHGLR	0.654 ± 0.053
SGLRAFVVTLID	0.673 ± 0.011
SGLRHACTPKSD	0.671 ± 0.024
SGPRRECVPRSV	0.682 ± 0.066
SGRGGTGIGERV	0.6694 ± 0.00092
SGRGQQEENRRL	0.7 ± 0.011
SGSDGLLVGAPG	0.666 ± 0.047
SGSGVGVVVSEV	0.666 ± 0.049
SGSVRSCSNTCL	0.6935 ± 0.0011
SGTQSGAFSRGQ	0.642 ± 0.081
SGVGCGRSRWVW	0.626 ± 0.029
SGVVGLSTSGVV	0.695 ± 0.063
SGWSWLGLRSGL	0.738 ± 0.025
SGYSTRPLSSRS	0.723 ± 0.041

Sequence	protein stability index
SHLSRSYPGLQL	0.742 ± 0.027
SHPLLPPHLPPP	0.682 ± 0.082
SHPPATMRAASV	0.6646 ± 0.0043
SHRYFFLAFSGL	0.655 ± 0.02
SHWCLQTQAACK	0.65529 ± 0.00032
SILPRWEFKSLS	0.802 ± 0.06
SILSRPERPLTN	0.658 ± 0.044
SIPSIPTLHENT	0.67593 ± 0.00066
SISVLSSSSLGF	0.741 ± 0.12
SITYDRLLPHSS	0.6594 ± 0.0063
SIVRKRPRTTAT	0.682 ± 0.031
SIYNKNKKIKQK	0.688 ± 0.07
SKDFLLILDPAK	0.662 ± 0.021
SKEVVVEGKRQS	0.715 ± 0.065
SKITENTKKKGK	0.658 ± 0.019
SKKKITGGEAGH	0.677 ± 0.046
SKLQGYRKLLST	0.567 ± 0.0065
SKLVEIIMKLQG	0.618 ± 0.055
SKPYNSAIKDIT	0.725 ± 0.096
SKRCNNNRNTSN	0.69 ± 0.044
SKVLKSKSTGRG	0.75 ± 0.11
SKVLRRLEPTIV	0.603 ± 0.04
SKWGQIKRVAIR	0.592 ± 0.038
SLAPLPARAPPL	0.725 ± 0.018
SLCTAGCKNELW	0.692 ± 0.076
SLDALVDFWSRG	0.737 ± 0.066

Sequence	protein stability index
SLDDWSAVFHVV	0.542 ± 0.012
SLDFTERHALAC	0.709 ± 0.031
SLDKCDKNNGGE	0.733 ± 0.065
SLEWVGGRRWPI	0.731 ± 0.014
SLFSLLVLPPPS	0.706 ± 0.035
SLGCIPLVDFLR	0.668 ± 0.0072
SLGFRSLGFDRV	0.7195 ± 0.0024
SLGPPSLSARTN	0.626 ± 0.045
SLICPPFWPPSF	0.691 ± 0.044
SLILRKDKKKKK	0.69 ± 0.01
SLIRSHKLKLFP	0.732 ± 0.045
SLLDPLLPLLLF	0.634 ± 0.017
SLLLALPSLPLS	0.553 ± 0.18
SLLPILFPPPPF	0.7147 ± 0.0046
SLLSCDETEFSS	0.614 ± 0.051
SLLSLSPACLPL	0.683 ± 0.026
SLLTSGSLTLFV	0.71 ± 0.037
SLLVSRVVFRGN	0.769 ± 0.12
SLPASTEPNVGT	0.696 ± 0.034
SLPFFPPRSPPS	0.725 ± 0.11
SLPFLPPSAPLP	0.76 ± 0.014
SLPLLPHLPASP	0.698 ± 0.17
SLPLPPLPYSRT	0.732 ± 0.083
SLPLPPPVRPLL	0.689 ± 0.047
SLPPLPSPPCPP	0.712 ± 0.044
SLPPPLPPPAPP	0.614 ± 0.04

Sequence	protein stability index
SLPPPPAPPPAI	0.706 ± 0.086
SLPPPPARAAIL	0.668 ± 0.07
SLPPPSPLPPPV	0.558 ± 0.018
SLPRLRSCPSSF	0.774 ± 0.18
SLPRPASYPPRF	0.652 ± 0.079
SLPSHPLPDPSR	0.67 ± 0.018
SLPYPFSLLPSL	0.739 ± 0.03
SLRGIVFQSPSP	0.737 ± 0.025
SLRNSFPPLSSP	0.651 ± 0.07
SLRTREGSSRRE	0.674 ± 0.23
SLSLHALPRPTT	0.655 ± 0.029
SLSLPSSVIVGS	0.624 ± 0.089
SLSLVSLSPSFS	0.694 ± 0.0096
SLSLYSSTSLLP	0.694 ± 0.064
SLSRLVGPLVSS	0.611 ± 0.0066
SLSVMSAPLVGI	0.636 ± 0.056
SLSVPYPPGLLP	0.7119 ± 0.0022
SLSWIGLYCCGL	0.717 ± 0.051
SLTGYAGESIRF	0.774 ± 0.056
SLVGFLPLWPSS	0.64 ± 0.0085
SLVNDLFFLFFY	0.523 ± 0.069
SLVTGRGFKVYR	0.681 ± 0.05
SLVWVVSDLGCG	0.778 ± 0.11
SLYQPLSPTPPE	0.74 ± 0.064
SMCASRMPVCFS	0.767 ± 0.18
SMGSGCTPSMVS	0.654 ± 0.11

Sequence	protein stability index
SMNCTSLRPGSF	0.7065 ± 0.0015
SMSPAGARCLPR	0.782 ± 0.05
SNAGRRRTNRIP	0.682 ± 0.03
SNAIPGSHLCRS	0.719 ± 0.093
SNFCIWRWWLGF	0.6858 ± 0.0014
SNFKKRKERFGR	0.7048 ± 0.0063
SNGFYVSRPIVY	0.769 ± 0.017
SNGGCIMSNIYS	0.758 ± 0.059
SNHPPLSFHTGR	0.734 ± 0.0084
SNKATNEGNVNV	0.68 ± 0.025
SNPKLPYSGTLE	0.6685 ± 0.0015
SNVHDEVLWTRA	0.704 ± 0.011
SPADALPLPGCG	0.707 ± 0.05
SPAFPPPPGFPP	0.69 ± 0.04
SPAKRLFRFPSS	0.729 ± 0.05
SPALLAPPFSPS	0.68455 ± 0.00067
SPAPSFLPLTPS	0.656 ± 0.014
SPARLPPLPSLS	0.734 ± 0.038
SPASPLDPSSSS	0.712 ± 0.037
SPFLINTIFDIT	0.606 ± 0.038
SPGLLPPPTSAF	0.71 ± 0.017
SPGPPLPSLTLP	0.738 ± 0.065
SPGPVTPRPSLR	0.669 ± 0.019
SPGSPLSPPAPP	0.62 ± 0.04
SPHPRKTTSHPR	0.6642 ± 0.0015
SPHTRPDPPPLP	0.681 ± 0.071

Sequence	protein stability index
SPKCIVASFVVS	0.675 ± 0.028
SPLALATPLSDP	0.699 ± 0.039
SPLASAVPFLIV	0.633 ± 0.045
SPLPPPPPSSSS	0.661 ± 0.016
SPLPPPPSRPPR	0.794 ± 0.032
SPLPPTPPPISP	0.6721 ± 0.00083
SPLYCGLSLPSV	0.664 ± 0.027
SPNSCSVDYFAT	0.61 ± 0.055
SPPESTFAFLRP	0.706 ± 0.037
SPPFLLPFFPTP	0.68 ± 0.043
SPPHASPPVLPW	0.72 ± 0.028
SPPHLPPPLLST	0.645 ± 0.06
SPPLPPPVPTAP	0.7095 ± 0.0056
SPPLPPVLSRSH	0.741 ± 0.043
SPPLSPPLPSRP	0.7016 ± 0.0064
SPPLSRSPPPTL	0.674 ± 0.039
SPPPFLCSPFVA	0.684 ± 0.024
SPPPGHPPLVPN	0.767 ± 0.013
SPPPHSARPPRP	0.686 ± 0.012
SPPPLPTAPPPL	0.713 ± 0.066
